Data taken from publication PMC9939298.

Assays:
purified protein [1] = substrate: O=c1ccn([C@@H]2O[C@H](CO[P@@](=O)(O)O[P@@](=O)(O)O[C@H]3O[C@H](CO)[C@@H](O)[C@H](O)[C@H]3O)[C@@H](O)[C@H]2O)c(=O)[nH]1; experiment: purified protein; settings: details in supplement Table S2
purified protein [2] = substrate: O=c1ccn([C@@H]2O[C@H](COP(=O)(O)OP(=O)(O)O[C@H]3OC[C@@H](O)[C@H](O)[C@H]3O)[C@@H](O)[C@H]2O)c(=O)[nH]1; experiment: purified protein; settings: acceptor astragaloside III (5); details in supplement Table S2

B1: AmUGT7 (Astragalus mongholicus) (protein)
chain: MESQQSHEQLNVTFLPYPTPGHMIPMIDTARLFAKHGATVTIITTHANASTFQKHIDSDISLGYPIKTQLIQFPAAQVGLPDGVENVKDGSSLELLGKISQGIFLLQGQIELLFQHLQPDCIVTDMMYPWTVESAAKLGIPRLHYYSTSYFSNCASYFVRKYRPHDSLDSDDQKFTVPCLPISIEMTPLQLPEWIRTKNPSTGGFFEAMYESEKNSYGTLYNSFHELESDYEQLNKTTMGIKSWSVGPVSAWANKDDEKKANRGHMGESGKELEWLNWLNSKQNDSVLYVSFGSLTRLPNAQLLEIAHGLEISGHNFIWVIRKNDRDEDGDNFLQEFEQRMKESKKGYIIWNWAPQLLILDQPAVGGIVTHCGWNSILESINAGLPMIAWPMFAEQFYNERLLVDVLKIGVPVGVKENKYWFNIGEETLVRREEIMKAVVLLMGSSQESKEMRLKAKKLADASKRTIEEGGHSYNNLLQLIDELKSLKISRELDKSRLDN
Work on B1 yielded a Km (purified protein [1]; acceptor cycloastragenol-3-O-β-D-xyloside (2)) of 74.8 µM.

B2: AmUGT13 (Astragalus mongholicus) (protein)
chain: MEREAENRPLKLYFLPFLAAGHMIPLCDIAMLFASRGQDVTVITTPSNAETLLKRKSNNHLHIHTVDIPSDSPQIENITSATNIDSAISVYTAAMLLRQPVEQFLRENPPDCIVADFMYQWVSEIANTLQIPRLAFNGFPLFAVCAMNSFSAHPELFSGSVSEPFNLPDLPHPITMHARSPEGIFRFYEALLKMEVESHGLIVNSFVEIESEYVEHYERTTGHKAWHLGPASLVHASNQQKSERGHISVVSENDCVSWLNSKQPNSVVYISFGSTCRFSDNQLYEIAAGVEASGHPFIWVVLEKLEEKGSKGWLPEGFEERMKEKGMIIRGWAPQVLILDHPAIGGFLTHCGWNSVVEGVSAGVPMMTWPVQADQFYNEKLITEVQGNGVEVGAVEWGVSGYGERKIVISREKIEKAVRRVMDGGDEAEEIRRRARQLAVKAKEAVREGGSSHRNLRELIRDLKLLRDSRSAN
B2 showed a Km (purified protein [2]) of 479.6 µM and a Km (purified protein [1]; acceptor astragaloside III (5)) of 414.7 µM.
